The text below walks through data of publication PMC6208348 (Nature Communications, 2018).

In this assay the target is wild-type Src SH2 domain (UniProt P12931 151-248). In words: fluorescence polarisation. As to conditions: both partners purified.

Non-standard residues stand in square brackets, D forms with d. No end group written: not given here. pY = N[C@@H](Cc1ccc(OP(=O)(O)O)cc1)C(=O)O Bounds are passed on as bounds.

B1: mini peptide GGpYGG (peptide)
peptide: GG[pY]GG
notes: source: synthetic peptide
Take B1: the Kd was > 50 µM.
